Our source for the Retention in capsule and RF value values is patent US20040109827A1, “Powdery preparations and proecss for producing the same” (priority 2000, published 2004).

A short description of this series: Cascade impactor (Andersen sampler) analysis of powder formulations as a model of artificial airways and lung. The conditions noted are these: Table 9.

Experimental: In order to investigate aerodynamic particle diameters of powders, examination was carried out using a cascade impactor as a model of artificial airways and lung. The main body comprises 8 stages and a final filter superposed on top of another in combination with a flow meter and a suction pump. The method described in “Multistage Cascade Impactor Apparatus” in USP 2000 “Physical Tests and Determinations/Aerosols” was basically employed. A specific condition is as described below.
Suitable amounts of the formulations were filled into the No. 2 capsules specified by the Japanese Pharmacopoeia and placed on the device.
These formulations were analyzed using a cascade impactor. […] These RF values are obtained by weighing the powders collected at each stage and dividing the amounts collected at stages 2 to 5 by a total amount of finely ground substances contained in the formulations.
These formulations were analyzed using a cascade impactor. […] These RF values are obtained by quantifying by HPLC the glucagon in formulations collected at each stage and dividing the amounts of glucagon at stages 2 to 5 by the total amount of glucagon contained in the encapsulated formulations. Conditions for HPLC analysis are as shown below.
These formulations were filled into the No. 2 capsules specified by the Pharmacopoeia of Japan and analyzed using the following device.

With glucagon, the Retention in capsule result (No. 2 capsule, Jet-haler, suctioning for 10 seconds) is given as “Almost all formulations remained due”. Further, where the note is “glucagon by HPLC at stages 2 to 5 / total glucagon in encapsulated formulations, lactose carrier Pharmatose 325 M”, the RF value was 0%.
